Assay results taken from paper doi:10.1101/713677.

Target: zip (positive control of the BACTH system)
Assay: two-hybrid

- β-galactosidase activity: 63300 Miller units
Substance: zip (positive control of the BACTH system) (domain or fragment)
